Assay results from patent US20060127407A1 (IMMUNOGEN, published 2006).

B1: abciximab (Fab, V domains shown)
VH: EVQLQQSGTVLARPGASVKMSCEASGYTFTNYWMHWVKQRPGQGLEWIGAIYPGNSDTSYIQKFKGKAKLTAVTSTTSVYMELSSLTNEDSAVYYCTLYDGYYVFAYWGQGTLVTVSA
VL: EIVLTQSPVTLSVTPGDSVSLSCRASRDISNNLHWFQQTSHESPRLLIKYASQSMSGIPSRFSGSGSGTDFTLSINSVETEDFGMYFCQQTNSWPYTFGGGTKLEIK
B2: Monoclonal antibody CNTO 95 (antibody, IgG1, V domains shown)
VH: QVQLVESGGGVVQPGRSRRLSCAASGFTFSRYTMHWVRQAPGKGLEWVAVISFDGSNKYYVDSVKGRFTISRDNSENTLYLQVNILRAEDTAVYYCAREARGSYAFDIWGQGTMVTVSS
VL: EIVLTQSPATLSLSPGERATLSCRASQSVSSYLAWYQQKPGQAPRLLIYDASNRATGIPARFSGSGSGTDFTLTISSLEPEDFAVYYCQQRSNWPPFTFGPGTKVDIK
notes: also called C371A; Mab CNTO 95
B3: CNTO 364 (CNTO 95-SPP-DM1) (antibody, human IgG1, V domains shown)
VH: B2 VH
VL: B2 VL
modifications: maytansinoid DM1 linked through SPP (disulfide) to amino acid side chains, positions not given
notes: Antibody-drug conjugate of CNTO 95 (human IgG1 kappa); also called CNTO 95-DM1; the conjugate

Key:
alphaVbeta3 integrin [1] = molecular target: T1, alphaVbeta3 integrin (human, UniProt P06756 31-1048; P05106 27-788); test: saturation binding curve on αvβ3 coated plates
T1 construct: Purified integrin coated on plates; also called αvβ3; αVβ3

alphaVbeta3 integrin [2] = molecular target: T1, alphaVbeta3 integrin; test: ELISA on alphaVbeta3 protein, absorbance against concentration
alphaVbeta3 integrin [3] = molecular target: T1, alphaVbeta3 integrin; test: saturation binding curve, 125-I CNTO 95 on αvβ3 coated plates
Experimental: (§1) A375S2 and M21 cells express both αvβ₃ and αᵥβ₅, HT-29 cells express αvβ5. For comparison, other Mabs capable of binding integrins were used. The Kd was calculated from a saturation binding curve in each case using multiple replicates of multiple lots of antibody.

[4] = molecular target: T2, alphaV subunit integrins on human tumor cells (HT29, A549, A2780) (human, UniProt P06756 31-1048); test: flow cytometry on A2780 human ovarian carcinoma cells, FITC anti-human antibody
T2 construct: whole, on cells; the cell line of each number is named under assay; also called alphaV integrins on living cells
Experimental: (§2) Cells: HT29 human colon carcinoma and A549 human lung carcinoma cells were from ATCC and maintained in alphaMEM supplemented with 10% fetal bovine serum (FBS). A2780 human ovarian carcinoma cells were obtained from National Cancer Institute. A2780 cells were cultured in RPMI 1640 medium containing 10% FBS. […] Absence of primary antibody or substitution of primary antibody with isotype matched antibody served as negative controls. Cells were immediately analyzed with a FACS Scan II flow cytometer (Becton Dickinson, Mountain View, Calif.). Data was analyzed with GraphPad Prism software using non-liner regression to determine the concentration at 50% maximal binding (Table 7).

alphaVbeta5 integrin [5] = molecular target: T3, alphaVbeta5 integrin (UniProt P06756 31-1048; P18084 24-799); test: saturation binding curve, 125-I CNTO 95 on αvβ5 coated plates
T3 construct: Purified integrin coated on plates; also called αvβ5; alphaVbetaS protein
Experimental: as §1

[6] = molecular target: T2, alphaV subunit integrins on human tumor …; test: flow cytometry on HT29 human colon carcinoma cells, FITC anti-human antibody
Experimental: as §2

alphaVbeta5 integrin [7] = molecular target: T3, alphaVbeta5 integrin; test: ELISA on alphaVbeta5 protein, absorbance against concentration
[8] = molecular target: T2, alphaV subunit integrins on human tumor …; test: flow cytometry on A549 human lung carcinoma cells, FITC anti-human antibody
Experimental: as §2

alphaVbeta3 integrin [9] = molecular target: T1, alphaVbeta3 integrin; test: ELISA, purified antibody on alphaVbeta3

T3 sequence (P06756 31-1048, chain 1 of 2): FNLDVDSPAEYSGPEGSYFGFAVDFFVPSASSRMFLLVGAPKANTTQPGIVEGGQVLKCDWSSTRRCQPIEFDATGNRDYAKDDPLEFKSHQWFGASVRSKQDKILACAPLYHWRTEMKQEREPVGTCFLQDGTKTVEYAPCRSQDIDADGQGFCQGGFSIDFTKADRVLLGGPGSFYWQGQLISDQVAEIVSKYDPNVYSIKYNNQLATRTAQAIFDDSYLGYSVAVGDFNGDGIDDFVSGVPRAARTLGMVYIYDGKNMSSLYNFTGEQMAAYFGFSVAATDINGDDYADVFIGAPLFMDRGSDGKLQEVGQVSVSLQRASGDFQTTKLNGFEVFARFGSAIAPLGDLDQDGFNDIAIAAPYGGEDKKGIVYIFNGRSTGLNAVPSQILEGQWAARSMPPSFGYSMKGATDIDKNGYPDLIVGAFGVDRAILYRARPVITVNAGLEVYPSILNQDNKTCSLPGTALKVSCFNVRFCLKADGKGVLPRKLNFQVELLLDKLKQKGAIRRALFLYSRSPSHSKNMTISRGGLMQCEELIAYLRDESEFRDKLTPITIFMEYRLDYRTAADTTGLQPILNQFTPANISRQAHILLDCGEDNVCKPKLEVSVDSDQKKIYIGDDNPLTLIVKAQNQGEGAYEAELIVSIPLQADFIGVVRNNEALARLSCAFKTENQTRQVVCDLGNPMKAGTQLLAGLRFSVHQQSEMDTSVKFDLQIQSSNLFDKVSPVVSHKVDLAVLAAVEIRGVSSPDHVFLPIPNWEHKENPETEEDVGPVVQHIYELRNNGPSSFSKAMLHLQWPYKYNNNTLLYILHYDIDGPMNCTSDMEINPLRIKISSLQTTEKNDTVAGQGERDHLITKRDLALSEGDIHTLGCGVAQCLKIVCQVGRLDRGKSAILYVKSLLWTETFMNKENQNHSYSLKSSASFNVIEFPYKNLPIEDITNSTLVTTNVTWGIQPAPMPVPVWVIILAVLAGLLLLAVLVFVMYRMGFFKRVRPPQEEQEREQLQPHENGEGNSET
T3 sequence (P18084 24-799, chain 2 of 2): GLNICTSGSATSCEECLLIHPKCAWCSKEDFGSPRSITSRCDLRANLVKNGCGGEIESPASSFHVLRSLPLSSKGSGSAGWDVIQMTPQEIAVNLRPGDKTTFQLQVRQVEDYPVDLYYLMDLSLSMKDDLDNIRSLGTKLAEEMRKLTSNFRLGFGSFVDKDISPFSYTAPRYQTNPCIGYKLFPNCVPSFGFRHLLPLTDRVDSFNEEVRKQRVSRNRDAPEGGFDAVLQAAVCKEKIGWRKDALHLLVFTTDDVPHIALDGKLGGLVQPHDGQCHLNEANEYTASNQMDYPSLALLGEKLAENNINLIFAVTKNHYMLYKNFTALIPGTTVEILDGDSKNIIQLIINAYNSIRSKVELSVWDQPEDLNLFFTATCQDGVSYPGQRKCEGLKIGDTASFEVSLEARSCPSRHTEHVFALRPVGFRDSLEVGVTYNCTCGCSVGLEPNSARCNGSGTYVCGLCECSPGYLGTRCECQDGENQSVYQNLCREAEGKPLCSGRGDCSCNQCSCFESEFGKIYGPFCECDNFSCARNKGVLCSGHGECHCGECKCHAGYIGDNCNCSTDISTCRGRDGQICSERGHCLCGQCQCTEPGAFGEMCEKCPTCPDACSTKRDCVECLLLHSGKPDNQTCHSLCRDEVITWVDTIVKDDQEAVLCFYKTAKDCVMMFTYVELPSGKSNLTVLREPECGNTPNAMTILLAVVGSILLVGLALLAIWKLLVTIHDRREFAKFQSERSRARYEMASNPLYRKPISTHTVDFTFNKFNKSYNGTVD
T2 sequence (P06756 31-1048): as the sequence (P06756 31-1048, chain 1 of 2) above
T1 sequence (P06756 31-1048, chain 1 of 2): as above
T1 sequence (P05106 27-788, chain 2 of 2): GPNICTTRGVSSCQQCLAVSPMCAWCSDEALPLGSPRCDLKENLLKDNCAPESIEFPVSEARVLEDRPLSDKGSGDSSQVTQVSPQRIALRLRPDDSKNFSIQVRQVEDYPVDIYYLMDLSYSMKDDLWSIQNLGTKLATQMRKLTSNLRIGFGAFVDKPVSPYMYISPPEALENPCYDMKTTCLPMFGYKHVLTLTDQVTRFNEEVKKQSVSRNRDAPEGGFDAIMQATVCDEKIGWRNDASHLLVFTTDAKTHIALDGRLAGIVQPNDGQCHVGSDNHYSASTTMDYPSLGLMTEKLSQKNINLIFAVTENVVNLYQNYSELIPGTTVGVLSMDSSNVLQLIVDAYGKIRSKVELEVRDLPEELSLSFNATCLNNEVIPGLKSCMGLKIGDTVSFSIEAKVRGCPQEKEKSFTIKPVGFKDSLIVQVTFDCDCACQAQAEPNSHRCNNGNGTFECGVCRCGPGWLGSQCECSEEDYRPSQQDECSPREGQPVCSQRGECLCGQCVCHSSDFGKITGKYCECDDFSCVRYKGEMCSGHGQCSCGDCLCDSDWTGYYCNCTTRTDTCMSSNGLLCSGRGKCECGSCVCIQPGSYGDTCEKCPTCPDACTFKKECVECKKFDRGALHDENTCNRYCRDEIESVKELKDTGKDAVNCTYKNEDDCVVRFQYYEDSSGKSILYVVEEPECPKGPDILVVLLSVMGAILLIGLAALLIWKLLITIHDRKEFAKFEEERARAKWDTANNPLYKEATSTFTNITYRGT

| Binder | Kd (alphaVbeta3 integrin [1]) [pM] | Kd (alphaVbeta3 integrin [2]) [pM] | Kd (alphaVbeta3 integrin [3]) [pM] | EC50 [4] [µg/mL] | Kd (alphaVbeta5 integrin [5]) [pM] | EC50 [6] [µg/mL] | Kd (alphaVbeta5 integrin [7]) [pM] | EC50 [8] [µg/mL] | EC50 (alphaVbeta3 integrin [9]) [µg/mL] |
| --- | --- | --- | --- | --- | --- | --- | --- | --- | --- |
| B1 | 250 |  |  |  |  |  |  |  |  |
| B2 |  | ~3000 | 210 | 170 | 25 | 140 | 30 | 180 | 0.7 |
| B3 |  | ~3000 |  | 270 |  | 190 | 35 | 270 |  |
